Laboratory results: IntAct's records for PubMed 31515488

B1: E3 ubiquitin-protein ligase TRIM9 (Homo sapiens), Q9C026-5 (parent)
chain: MEEMEEELKCPVCGSFYREPIILPCSHNLCQACARNILVQTPESESPQSHRAAGSGVSDYDYLDLDKMSLYSEADSGYGSYGGFASAPTTPCQKSPNGVRVFPPAMPPPATHLSPALAPVPRNSCITCPQCHRSLILDDRGLRGFPKNRVLEGVIDRYQQSKAAALKCQLCEKAPKEATVMCEQCDVFYCDPCRLRCHPPRGPLAKHRLVPPAQGRVSRRLSPRKVSTCTDHELENHSMYCVQCKMPVCYQCLEEGKHSSHEVKALGAMWKLHKSQLSQALNGLSDRAKEAKEFLVQLRNMVQQIQENSVEFEACLVAQCDALIDALNRRKAQLLARVNKEHEHKLKVVRDQISHCTVKLRQTTGLMEYCLEVIKENDPSGFLQISDALIRRVHLTEDQWGKGTLTPRMTTDFDLSLDNSPLLQSIHQLDFVQVKASSPVPATPILQLEECCTHNNSATLSWKQPPLSTVPADGYILELDDGNGGQFREVYVGKETMCTVDGLHFNSTYNARVKAFNKTGVSPYSKTLVLQTSEGKALQQYPSERELRGI
B2: Breast cancer metastasis-suppressor 1 (Homo sapiens), Q9HCU9 (parent)
chain: MPVQPPSKDTEEMEAEGDSAAEMNGEEEESEEERSGSQTESEEESSEMDDEDYERRRSECVSEMLDLEKQFSELKEKLFRERLSQLRLRLEEVGAERAPEYTEPLGGLQRSLKIRIQVAGIYKGFCLDVIRNKYECELQGAKQHLESEKLLLYDTLQGELQERIQRLEEDRQSLDLSSEWWDDKLHARGSSRSWDSLPPSKRKKAPLVSGPYIVYMLQEIDILEDWTAIKKARAAVSPQKRKSDGP
partner: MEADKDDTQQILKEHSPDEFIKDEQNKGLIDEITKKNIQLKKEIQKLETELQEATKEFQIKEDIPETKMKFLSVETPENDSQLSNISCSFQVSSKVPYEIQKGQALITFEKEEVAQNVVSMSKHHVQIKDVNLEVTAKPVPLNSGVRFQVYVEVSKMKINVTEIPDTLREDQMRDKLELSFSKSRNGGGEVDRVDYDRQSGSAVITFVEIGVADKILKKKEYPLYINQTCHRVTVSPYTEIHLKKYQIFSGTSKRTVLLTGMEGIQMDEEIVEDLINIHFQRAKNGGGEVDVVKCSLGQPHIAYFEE
B3: G2/M phase-specific E3 ubiquitin-protein ligase (Homo sapiens), Q7L622 (parent)
chain: MNESKPGDSQNLACVFCRKHDDCPNKYGEKKTKEKWNLTVHYYCLLMSSGIWQRGKEEEGVYGFLIEDIRKEVNRASKLKCCVCKKNGASIGCVAPRCKRSYHFPCGLQRECIFQFTGNFASFCWDHRPVQIITSNNYRESLPCTICLEFIEPIPSYNILRSPCCKNAWFHRDCLQVQAINAGVFFFRCTICNNSDIFQKEMLRMGIHIPEKDASWELEENAYQELLQHYERCDVRRCRCKEGRDYNAPDSKWEIKRCQCCGSSGTHLACSSLRSWEQNWECLECRGIIYNSGEFQKAKKHVLPNSNNVGITDCLLEESSPKLPRQSPGSQSKDLLRQGSKFRRNVSTLLIELGFQIKKKTKRLYINKANIWNSALDAFRNRNFNPSYAIEVAYVIENDNFGSEHPGSKQEFLSLLMQHLENSSLFEGSLSKNLSLNSQALKENLYYEAGKMLAISLVHGGPSPGFFSKTLFNCLVYGPENTQPILDDVSDFDVAQIIIRINTATTVADLKSIINECYNYLELIGCLRLITTLSDKYMLVKDILGYHVIQRVHTPFESFKQGLKTLGVLEKIQAYPEAFCSILCHKPESLSAKILSELFTVHTLPDVKALGFWNSYLQAVEDGKSTTTMEDILIFATGCSSIPPAGFKPTPSIECLHVDFPVGNKCNNCLAIPITNTYKEFQENMDFTIRNTLRLEKEESSHYIGH
partner: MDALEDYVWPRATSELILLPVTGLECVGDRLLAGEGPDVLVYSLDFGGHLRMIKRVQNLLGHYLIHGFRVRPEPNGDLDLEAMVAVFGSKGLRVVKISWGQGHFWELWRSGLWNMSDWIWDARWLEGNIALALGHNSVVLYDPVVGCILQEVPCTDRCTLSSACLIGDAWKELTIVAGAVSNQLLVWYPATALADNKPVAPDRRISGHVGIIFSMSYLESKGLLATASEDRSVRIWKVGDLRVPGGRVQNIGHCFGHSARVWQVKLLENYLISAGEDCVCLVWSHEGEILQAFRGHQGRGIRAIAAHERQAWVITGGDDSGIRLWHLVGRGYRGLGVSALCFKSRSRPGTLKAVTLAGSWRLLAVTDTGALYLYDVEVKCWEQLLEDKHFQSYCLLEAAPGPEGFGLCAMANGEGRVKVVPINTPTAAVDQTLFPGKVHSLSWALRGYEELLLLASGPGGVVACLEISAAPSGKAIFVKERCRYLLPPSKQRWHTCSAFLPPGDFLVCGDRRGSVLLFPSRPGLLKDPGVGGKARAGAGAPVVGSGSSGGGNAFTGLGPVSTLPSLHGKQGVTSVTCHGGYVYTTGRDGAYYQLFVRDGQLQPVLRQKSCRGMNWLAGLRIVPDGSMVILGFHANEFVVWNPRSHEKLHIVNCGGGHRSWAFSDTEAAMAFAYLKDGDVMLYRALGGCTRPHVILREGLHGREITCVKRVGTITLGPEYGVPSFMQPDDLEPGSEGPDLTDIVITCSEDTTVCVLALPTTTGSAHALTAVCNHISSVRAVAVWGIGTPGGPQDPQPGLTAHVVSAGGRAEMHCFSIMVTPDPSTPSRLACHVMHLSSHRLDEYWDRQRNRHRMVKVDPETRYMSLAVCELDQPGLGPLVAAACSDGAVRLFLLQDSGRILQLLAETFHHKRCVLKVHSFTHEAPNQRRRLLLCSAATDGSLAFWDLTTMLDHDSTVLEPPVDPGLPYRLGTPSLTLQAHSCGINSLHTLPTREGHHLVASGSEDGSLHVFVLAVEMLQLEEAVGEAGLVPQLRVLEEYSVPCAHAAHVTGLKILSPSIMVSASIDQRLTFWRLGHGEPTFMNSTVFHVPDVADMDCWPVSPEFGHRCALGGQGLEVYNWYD
B4: Protein LDOC1 (Homo sapiens), O95751 (parent)
chain: MVDELVLLLHALLMRHRALSIENSQLMEQLRLLVCERASLLRQVRPPSCPVPFPETFNGESSRLPEFIVQTASYMLVNENRFCNDAMKVAFLISLLTGEAEEWVVPYIEMDSPILGDYRAFLDEMKQCFGWDDDEDDDDEEEEDDY
partner: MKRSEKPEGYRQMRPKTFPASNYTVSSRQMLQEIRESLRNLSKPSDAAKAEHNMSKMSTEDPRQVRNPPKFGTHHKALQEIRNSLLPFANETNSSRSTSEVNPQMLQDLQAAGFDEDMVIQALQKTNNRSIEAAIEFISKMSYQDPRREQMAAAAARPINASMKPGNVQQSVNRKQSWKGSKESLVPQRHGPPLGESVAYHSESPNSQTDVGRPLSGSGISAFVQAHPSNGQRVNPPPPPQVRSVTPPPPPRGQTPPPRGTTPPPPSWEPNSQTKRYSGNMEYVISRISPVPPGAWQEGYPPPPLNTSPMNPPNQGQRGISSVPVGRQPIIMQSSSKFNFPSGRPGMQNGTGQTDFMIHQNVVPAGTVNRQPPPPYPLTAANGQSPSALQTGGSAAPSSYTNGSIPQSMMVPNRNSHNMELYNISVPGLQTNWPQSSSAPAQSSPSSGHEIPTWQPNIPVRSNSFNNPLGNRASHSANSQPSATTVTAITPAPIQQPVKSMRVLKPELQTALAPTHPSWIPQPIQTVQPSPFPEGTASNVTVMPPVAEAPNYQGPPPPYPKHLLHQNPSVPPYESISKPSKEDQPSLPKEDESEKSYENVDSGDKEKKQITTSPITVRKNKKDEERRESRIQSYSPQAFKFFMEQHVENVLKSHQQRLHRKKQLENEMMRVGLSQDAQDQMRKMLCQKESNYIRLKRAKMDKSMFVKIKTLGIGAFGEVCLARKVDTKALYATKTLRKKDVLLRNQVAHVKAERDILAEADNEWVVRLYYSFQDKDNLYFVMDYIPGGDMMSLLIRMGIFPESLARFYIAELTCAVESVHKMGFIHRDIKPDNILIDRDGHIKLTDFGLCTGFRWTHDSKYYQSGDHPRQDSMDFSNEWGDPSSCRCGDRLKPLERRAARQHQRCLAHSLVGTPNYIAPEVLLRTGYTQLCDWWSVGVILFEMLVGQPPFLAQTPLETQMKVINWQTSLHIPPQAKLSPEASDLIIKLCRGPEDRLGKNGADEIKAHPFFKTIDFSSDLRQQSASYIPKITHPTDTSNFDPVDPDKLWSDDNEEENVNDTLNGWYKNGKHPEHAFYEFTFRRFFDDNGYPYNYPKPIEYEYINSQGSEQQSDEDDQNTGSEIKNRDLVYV
B5: Low-density lipoprotein receptor class A domain-containing protein 1 (Homo sapiens), Q5T700 (parent)
chain: MNKVFPQGENGYTAAESKAHPGGEAGGGHLCCSRRGACLSASLLLLLATVAALIALVTILGLPSCTPGAQACITLTNRTGFLCHDQRSCIPASGVCDGVRTCTHGEDEDESLCRDVPQSLPHFLVAHCGDPASWIYSDQKCDGTNNCGDCSDELSPVTVCPPCGPGWWRCPSTFFKYCDCIPRHLCRDHVQHCSDWSDEYACPGP
partner: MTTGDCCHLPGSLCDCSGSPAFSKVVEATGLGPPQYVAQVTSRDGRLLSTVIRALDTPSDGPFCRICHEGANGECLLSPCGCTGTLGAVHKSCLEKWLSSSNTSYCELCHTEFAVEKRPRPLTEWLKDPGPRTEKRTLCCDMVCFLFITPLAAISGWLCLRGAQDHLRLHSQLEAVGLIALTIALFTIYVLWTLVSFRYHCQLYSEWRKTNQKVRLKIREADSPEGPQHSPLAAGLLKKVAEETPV

Variants of: B1
Settings: with fbw1a_human BTRC

Row | Variant | effect of a mutation on the interaction
1 | L277F | with no effect

Variants of: B2
Settings: with nmi_human NMI

Row | Variant | effect of a mutation on the interaction
2 | S7G | with no effect

Variants of: B3
Settings: with wdr6_human WDR6, Q9NNW5

Row | Variant | effect of a mutation on the interaction
3 | P328L | with no effect

Variants of: B4
Settings: with lats1_human LATS1, O95835

Row | Variant | effect of a mutation on the interaction
4 | L12H | disrupting interaction strength

Variants of: B5
Settings: with marh2_human MARCHF2, Q9P0N8

Row | Variant | effect of a mutation on the interaction
5 | E108K | with no effect
